T1: human MAdCAM expressed on cells (human, UniProt Q13477 19-382)
T1 construct: whole, on cells
T1 sequence (looked up): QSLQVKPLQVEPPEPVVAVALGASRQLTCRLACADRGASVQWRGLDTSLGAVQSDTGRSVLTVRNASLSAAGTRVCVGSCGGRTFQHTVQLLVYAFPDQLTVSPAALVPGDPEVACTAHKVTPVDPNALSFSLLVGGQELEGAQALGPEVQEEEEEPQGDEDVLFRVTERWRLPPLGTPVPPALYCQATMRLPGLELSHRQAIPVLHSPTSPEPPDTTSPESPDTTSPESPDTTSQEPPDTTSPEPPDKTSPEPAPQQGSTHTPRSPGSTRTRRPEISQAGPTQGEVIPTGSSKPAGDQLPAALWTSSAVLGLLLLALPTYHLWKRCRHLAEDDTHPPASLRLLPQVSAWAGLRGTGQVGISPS

T2: mouse MAdCAM expressed on cells (mouse, UniProt Q61826 22-405)
T2 construct: whole, on cells
T2 sequence (looked up): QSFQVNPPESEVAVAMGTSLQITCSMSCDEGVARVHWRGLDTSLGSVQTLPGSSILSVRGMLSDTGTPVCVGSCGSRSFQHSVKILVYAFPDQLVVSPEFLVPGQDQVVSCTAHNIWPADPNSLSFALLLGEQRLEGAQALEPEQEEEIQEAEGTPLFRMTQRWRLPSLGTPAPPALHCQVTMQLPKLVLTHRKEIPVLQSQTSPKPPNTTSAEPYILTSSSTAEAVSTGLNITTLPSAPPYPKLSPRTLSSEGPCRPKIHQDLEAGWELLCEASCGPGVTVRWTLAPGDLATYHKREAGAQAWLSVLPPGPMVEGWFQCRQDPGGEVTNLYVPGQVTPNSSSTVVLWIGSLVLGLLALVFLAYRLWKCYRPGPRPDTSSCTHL


How the values were obtained:
[1] = molecular target: T1, human MAdCAM expressed on cells; assay: cell binding
[2] = molecular target: T2, mouse MAdCAM expressed on cells; assay: cell binding

Binder | binding result [1] | binding result [2]
MAdCAM antibody Table 1 clone 49 (scFv) scFv: QVQLVQSGAEVKKPGASVKVSCKASGDTFTGYYIHWVRQAPGQGLEWMGWINPNSGGTNYAQKFQGRVTMTRDTSTSTVYMELSSLRSEDTAVYYCARSGLWLGSYYGMDVWGQGTLVTVSSGGGGSGGGGSGGGGSGGGGSDIQMTQSPSSLSASVGDRVTITCRASQTISIWLAWYQQKPGKAPKLLIYDASTLQSGVPSRFSGSGSGTDFTLTISSLQPEDFATYYCQQYSSYPLTFGQGTKVEIK | binds | no binding
MAdCAM antibody Table 1 clone 47 (scFv) scFv: EVQLLESGGGLVQPGGSLRLSCAASGFSFSDYGMHWVRQAPGKGLEWVSAISGSGGSTYYADSVKGRFTISRDNSKNTLYLQMNSLRAEDTAVYYCARDGGWQPAAILDYWGQGTLVTVSSGGGGSGGGGSGGGGSGGGGSDIQMTQSPSSLSASVGDRVTITCRASQGISNNLNWYQQKPGKAPKLLIYDASNLETGVPSRFSGSGSGTDFTLTISSLQPEDFATYYCQQSYSTPLTFGGGTKVEIK | binds | no binding
MAdCAM antibody Table 1 clone 13 (scFv) scFv: EVQLLESGGGLVQPGGSLRLSCAASGFTFDDYAMHWVRQAPGKGLEWVSYIDASGTTIYYADSVKGRFTISRDNSKNTLYLQMNSLRAEDTAVYYCAKDQAAAGYWYFDLWGRGTLVTVSSGGGGSGGGGSGGGGSGGGGSDIQMTQSPSSLSASVGDRVTITCQASQDISNYLNWYQQKPGKAPKLLIYKASTLESGVPSRFSGSGSGTDFTLTISSLQPEDFATYYCQQSYSTPITFGQGTRLEIK | binds | no binding
MAdCAM antibody Table 1 clone 57 (scFv) scFv: QVQLVQSGAEVKKPGASVKVSCKASGYTFTSYYMHWVRQAPGQGLEWMGIINPSGGSTSYAQKFQGRVTMTRDTSTSTVYMELSSLRSEDTAVYYCARDSVAGTGGRYYGMDVWGQGTLVTVSSGGGGSGGGGSGGGGSGGGGSDIQMTQSPSSLSASVGDRVTITCRASQGISNYFAWYQQKPGKAPKLLIYAASSLQGGVPSRFSGSGSGTDFTLTISSLQPEDFATYYCQQSYSLPYTFGQGTKLEIK | binds | no binding
MAdCAM antibody Table 1 clone 52 (scFv) scFv: EVQLLESGGGLVQPGGSLRLSCAASGFTFSNSDMNWVRQAPGKGLEWVAHIWNDGSQKYYADSVKGRFTISRDNSKNTLYLQMNSLRAEDTAVYYCARDRTDPGYSSAMDVWGQGTTVTVSSGGGGSGGGGSGGGGSGGGGSDIQMTQSPSSLSASVGDRVTITCRASQDIRNYLGWYQQKPGKAPKLLIYDASSLETGVPSRFSGSGSGTDFTLTISSLQPEDFATYYCQQATSLPLTFGGGTKVEIK | binds | no binding
MAdCAM antibody Table 1 clone 15 (scFv) scFv: QVQLVQSGAEVKKPGSSVKVSCKASGYTFTNYYMHWVRQAPGQGLEWMGGIIPIVDRVKYAQKFQGRVTITADESTSTAYMELSSLRSEDTAVYYCAKGRYTVNYYYGMDVWGQGTTVTVSSGGGGSGGGGSGGGGSGGGGSDIQMTQSPSSLSASVGDRVTITCQANQDISNYLNWYQQKPGKAPKLLIYRASKLEAGVPSRFSGSGSGTDFTLTISSLQPEDFATYYCQQSSEIPYSFGQGTKLEIK | binds | no binding
MAdCAM antibody Table 1 clone 12 (scFv) scFv: QVQLVQSGAEVKKPGASVKVSCKASGYTFTGYYMHWVRQAPGQGLEWMGWIGPNSGDTNYAQKFQGRVTMTRDTSTSTVYMELSSLRSEDTAVYYCARDLDHNWYFDLWGRGTLVTVSSGGGGSGGGGSGGGGSGGGGSDIVMTQSPLSLPVTPGEPASISCRSSQSLLHSNGYNYLDWYLQKPGQSPQLLIYSSSNRAPGVPDRFSGSGSGTDFTLKISRVEAEDVGVYYCMQALHIPLTFGGGTKVEIK | binds | no binding
MAdCAM antibody Table 1 clone 14 (scFv) scFv: QVQLVQSGAEVKKPGSSVKVSCKASGYTFTDYHIHWVRQAPGQGLEWMGGIVPRSGSTTYAQKFQGRVTITADESTSTAYMELSSLRSEDTAVYYCAKDESSGWYYFDYWGQGTLVTVSSGGGGSGGGGSGGGGSGGGGSDIVMTQSPLSLPVTPGEPASISCRSSQSLLHSNGYNYLDWYLQKPGQSPQLLIYSAYNRASGVPDRFSGSGSGTDFTLKISRVEAEDVGVYYCMQALQTPLTFGQGTKVEIK | binds | no binding
MAdCAM antibody Table 1 clone 58 (scFv) scFv: QVQLVQSGAEVKKPGASVKVSCKASGYTFTGYYMHWVRQAPGQGLEWMGIINPSGGNTKYAQKFQGRVTMTRDTSTSTVYMELSSLRSEDTAVYYCTTADYYYYMDVWGKGTTVTVSSGGGGSGGGGSGGGGSGGGGSDIQMTQSPSSLSASVGDRVTITCRASQGISNYLAWYQQKPGKAPKLLIYAASSLQSGVPSRFSGSGSGTDFTLTISSLQPEDFATYYCQQYYSNADFGQGTKVEIK | binds | no binding

Now from value to binder:

binding result [1] | binding result [2] | Binder
binds | no binding | MAdCAM antibody Table 1 clone 53 (scFv) scFv: QVQLVQSGAEVKKPGASVKVSCKASGYTFTSYDINWVRQAPGQGLEWMGWMNPNSGNTGYAQKFQGRVTMTRDTSTSTVYMELSSLRSEDTAVYYCAKDSDYSNLLWDYWGQGTLVTVSSGGGGSGGGGSGGGGSGGGGSDIQMTQSPSSLSASVGDRVTITCRASQDITNDLGWYQQKPGKAPKLLIYQASSLESGVPSRFSGSGSGTDFTLTISSLQPEDFATYYCQQSYTIPLTFGQGTKVEIK
binds | no binding | MAdCAM antibody Table 1 clone 48 (scFv) scFv: EVQLLESGGGLVQPGGSLRLSCAASGFTFSDHGMHWVRQAPGKGLEWVSVIYGGESTYYADSVKGRFTISRDNSKNTLYLQMNSLRAEDTAVYYCARDPAVAGGGIFDYWGQGTLVTVSSGGGGSGGGGSGGGGSGGGGSDIQMTQSPSSLSASVGDRVTITCRASQGISNYLAWYQQKPGKAPKLLIYDASNLETGVPSRFSGSGSGTDFTLTISSLQPEDFATYYCQQSYSTCYTFGQGTKLEIK
binds | binds | MAdCAM antibody Table 1 clone 3 (scFv) scFv: QVQLVQSGAEVKKPGASVKVSCKASGYPFIGQYLHWVRQAPGQGLEWMGIINPSGGSTSYAQKFQGRVTMTRDTSTSTVYMELSSLRSEDTAVYYCAREGRLSYGMDAWGQGTLVTVSSGGGGSGGGGSGGGGSGGGGSDIQMTQSPSSLSASVGDRVTITCRASQSISSYLAWYQQKPGKAPKLLIYGASTLESGVPSRFSGSGSGTDFTLTISSLQPEDFATYYCQQTWGPPFTFGQGTKLEIK
binds | no binding | MAdCAM antibody Table 1 clone 51 (scFv) scFv: EVQLLESGGGLVQPGGSLRLSCAASGFTFNNYGMNWVRQAPGKGLEWVSRINSDGSSTSYADSVKGRFTISRDNSKNTLYLQMNSLRAEDTAVYYCARGAYYYYYMDVWGQGTLVTVSSGGGGSGGGGSGGGGSGGGGSEIVMTQSPATLSVSPGERATLSCRASQSVSGSYLAWYQQKPGQAPRLLIYATSSRASGIPARFSGSGSGTEFTLTISSLQSEDFAVYYCQQYYSGLTFGQGTKVEIK
binds | no binding | MAdCAM antibody Table 1 clone 11 (scFv) scFv: QVQLVQSGAEVKKPGASVKVSCKASGYTFTTYYMHWVRQAPGQGLEWMGGFDPEDGETIYAQKFQGRVTMTRDTSTSTVYMELSSLRSEDTAVYYCARHAVAGAVGAGYYYYGMDVWGQGTMVTVSSGGGGSGGGGSGGGGSGGGGSDIQMTQSPSSLSASVGDRVTITCRASESISNWLAWYQQKPGKAPKLLIYAASTLQSGVPSRFSGSGSGTDFTLTISSLQPEDFATYYCQQSYSVPFTFGPGTKVDIK
binds | no binding | MAdCAM antibody Table 1 clone 55 (scFv) scFv: QVQLVQSGAEVKKPGASVKVSCKASGYTFTSYYMHWVRQAPGQGLEWMGIIDPSGGSTSYAQKFQGRVTMTRDTSTSTVYMELSSLRSEDTAVYYCAREEWSSGGVGYFDYWGQGTLVTVSSGGGGSGGGGSGGGGSGGGGSDIQMTQSPSSLSASVGDRVTITCRASQGISSYLAWYQQKPGKAPKLLIYATSSLQTGVPSRFSGSGSGTDFTLTISSLQPEDFATYYCQQTYSIPITFGQGTRLEIK
binds | no binding | MAdCAM antibody Table 1 clone 54 (scFv) scFv: EVQLLESGGGLVQPGGSLRLSCAASGFTFGDYAMSWVRQAPGKGLEWVAVVSYDGTNKYYADSVKGRFTISRDNSKNTLYLQMNSLRAEDTAVYYCAKDICSSTSCYFDLWGRGTLVTVSSGGGGSGGGGSGGGGSGGGGSDIQMTQSPSSLSASVGDRVTITCRASQNINNYVNWYQQKPGKAPKLLIYDASNLETGVPSRFSGSGSGTDFTLTISSLQPEDFATYYCQQANSFPPTFGQGTRLEIK
binds | no binding | MAdCAM antibody Table 1 clone 50 (scFv) scFv: QVQLVQSGAEVKKPGASVKVSCKASGYTFTSYDINWVRQAPGQGLEWMGWINPNSGTTGYAQKFQGRVTMTRDTSTSTVYMELSSLRSEDTAVYYCARSPYYYYGMDVWGQGTTVTVSSGGGGSGGGGSGGGGSGGGGSDIQMTQSPSSLSASVGDRVTITCRASHFISRWVAWYQQKPGKAPKLLIYAASTLQSGVPSRFSGSGSGTDFTLTISSLQPEDFATYYCQQSYSGISFGPGTKVDIK
